# Laboratory results: patent publication US20220041721A1 (WUHAN YZY BIOPHARMA, published 2022)
# Where a chain is given by its changes, count along the chain named. Names and notes keep the numbering of the source.
# B1: Y150-F9-7 (bispecific antibody, human IgG1, lambda)
# scFv: QVQLVESGGGVVQPGRSLRLSCAASGFTFSTYAMNWVRQAPGKGLEWVARIRSKYNNYATYYADSVKDRFTISRDDSKNTLYLQMNSLRAEDTAVYYCARHGNFGNSYVSWFAYWGQGTLVTVSSGGGGSGGGGSGGGGSQTVVTQEPSLTVSPGGTVTLTCRSSTGAVTTSNYANWVQQKPGQAPRGLIGGTNKRAPGVPARFSGSLLGGKAALTLSGVQPEDEAEYYCALWYSNLWVFGGGTKVEIKGGGGSDKTHTCPPCPAPEFEGGPSVFLFPPKPKDTLMISRTPEVTCVVVDVSHEDPEVKFNWYVDGVEVHNAKTKPREEQYNSTYRVVSVLTVLHQDWLNGKEYKCKVSNKALPASIEKTISKAKGQPREPQVCTLPPSRDELTKNQVSLSCAVKGFYPSDIAVEWESNGQPENNYKTTPPVLDSDGSFFLVSKLTVDKSRWQQGNVFSCSVMHEALHNHYTQKSLSLSPGK
# heavy: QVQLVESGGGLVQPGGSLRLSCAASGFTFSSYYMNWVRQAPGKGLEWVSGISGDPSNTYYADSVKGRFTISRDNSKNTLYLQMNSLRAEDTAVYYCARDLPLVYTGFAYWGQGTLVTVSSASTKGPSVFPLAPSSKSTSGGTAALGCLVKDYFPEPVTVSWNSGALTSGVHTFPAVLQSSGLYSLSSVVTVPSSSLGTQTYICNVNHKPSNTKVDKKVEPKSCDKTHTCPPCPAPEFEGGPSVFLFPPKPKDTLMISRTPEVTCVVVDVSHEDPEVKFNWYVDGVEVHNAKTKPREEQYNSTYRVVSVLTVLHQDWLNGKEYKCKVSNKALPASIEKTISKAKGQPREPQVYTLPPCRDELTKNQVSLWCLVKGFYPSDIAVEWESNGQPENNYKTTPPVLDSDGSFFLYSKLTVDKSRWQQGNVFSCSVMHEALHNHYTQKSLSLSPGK
# light: DIELTQPPSVSVAPGQTARISCSGDNLRHYYVYWYQQKPGQAPVLVIYGDSKRPSGIPERFSGSNSGNTATLTISGTQAEDEADYYCQTYTGGASLVFGGGTKLTVLGQPKAAPSVTLFPPSSEELQANKATLVCLISDFYPGAVTVAWKADSSPVKAGVETTTPSKQSNNKYAASSYLSLTPEQWKSHRSYSCQVTHEGSTVEKTVAPTECS
# B2: Y150-F9-6 (bispecific antibody, human IgG1, lambda)
# scFv: EVQLVESGGGLVQPKGSLKLSCAASGFTFNTYAMNWVRQAPGKGLEWVARIRSKYNNYATYYADSVKDRFTISRDDSQSILYLQMNNLKTEDTAMYYCVRHGNFGNSYVSWFAYWGQGTLVTVSSGGGGSGGGGSGGGGSQAVVTQESALTTSPGETVTLTCRSSTGAVTTSNYANWVQEKPDHLFTGLIGGTNKRAPGVPARFSGSLIGDKAALTITGAQTEDEAIYFCALWYSNLWVFGGGTKLTVLGDGDGSDKTHTCPPCPAPEFEGGPSVFLFPPKPKDTLMISRTPEVTCVVVDVSHEDPEVKFNWYVDGVEVHNAKTKPREEQYNSTYRVVSVLTVLHQDWLNGKEYKCKVSNKALPASIEKTISKAKGQPREPQVCTLPPSRDELTKNQVSLSCAVKGFYPSDIAVEWESNGQPENNYKTTPPVLDSDGSFFLVSKLTVDKSRWQQGNVFSCSVMHEALHNHYTQKSLSLSPGK
# heavy: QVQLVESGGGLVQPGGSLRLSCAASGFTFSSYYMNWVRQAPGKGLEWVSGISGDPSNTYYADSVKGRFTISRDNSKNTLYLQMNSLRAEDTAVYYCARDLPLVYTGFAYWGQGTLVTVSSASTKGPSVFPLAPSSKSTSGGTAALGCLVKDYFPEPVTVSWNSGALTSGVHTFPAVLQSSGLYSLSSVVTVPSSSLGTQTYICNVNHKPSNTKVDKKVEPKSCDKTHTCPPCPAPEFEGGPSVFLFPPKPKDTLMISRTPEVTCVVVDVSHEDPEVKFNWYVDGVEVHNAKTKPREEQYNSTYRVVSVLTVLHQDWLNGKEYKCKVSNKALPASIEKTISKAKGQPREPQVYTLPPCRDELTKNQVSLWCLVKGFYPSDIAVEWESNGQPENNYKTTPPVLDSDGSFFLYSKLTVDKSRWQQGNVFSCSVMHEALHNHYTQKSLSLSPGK
# light: B1 light
# notes: Comparative: anti-CD38 (MOR) Fab arm and anti-CD3 scFv (SP34)-Fc fusion peptide; 150 is used
# B3: Y150-F9-11 (bispecific antibody, human IgG1, kappa)
# scFv: QVQLVESGGGVVQPGRSLRLSCAASGFTFSTYAMNWVRQAPGKGLEWVARIRSKYNNYATYYADSVKDRFTISRDDSKNTLYLQMNSLRAEDTAVYYCARHGNFGNSYVSWFAYWGQGTLVTVSSGGGGSGGGGSGGGGSQTVVTQEPSLTVSPGGTVTLTCRSSTGAVTTSNYANWVQQKPGQAPRGLIGGTNKRAPGVPARFSGSLLGGKAALTLSGVQPEDEAEYYCALWYSNLWVFGGGTKVEIKGRGRGSDKTHTCPPSPAPPVAGPSVFLFPPKPKDTLMISRTPEVTCVVVDVSHEDPEVQFNWYVDGVEVHNAKTKPREEQFNSTFRVVSVLTVVHQDWLNGKEYKCKVSNKGLPAPIEKTISKTKGQPREPQVCTLPPSRDELTKNQVSLSCAVKGFYPSDIAVEWESNGQPENNYKTTPPVLDSDGSFFLVSKLTVDKSRWQQGNVFSCSVMHEALHNHYTQKSLSLSPGK
# heavy: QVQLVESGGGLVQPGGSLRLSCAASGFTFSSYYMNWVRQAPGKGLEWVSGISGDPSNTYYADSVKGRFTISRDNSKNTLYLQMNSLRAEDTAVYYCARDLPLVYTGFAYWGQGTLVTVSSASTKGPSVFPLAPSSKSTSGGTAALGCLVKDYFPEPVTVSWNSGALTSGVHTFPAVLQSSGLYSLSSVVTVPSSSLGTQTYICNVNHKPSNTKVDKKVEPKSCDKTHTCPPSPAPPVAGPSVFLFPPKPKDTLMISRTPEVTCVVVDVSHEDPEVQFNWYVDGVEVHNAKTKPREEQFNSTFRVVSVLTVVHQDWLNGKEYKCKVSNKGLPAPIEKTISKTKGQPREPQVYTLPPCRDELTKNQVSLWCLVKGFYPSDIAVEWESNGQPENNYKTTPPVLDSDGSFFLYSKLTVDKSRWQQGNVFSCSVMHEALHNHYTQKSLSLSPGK
# light: DIELTQPPSVSVAPGQTARISCSGDNLRHYYVYWYQQKPGQAPVLVIYGDSKRPSGIPERFSGSNSGNTATLTISGTQAEDEADYYCQTYTGGASLVFGGGTKLTVLRTVAAPSVFIFPPSDEQLKSGTASVVCLLNNFYPREAKVQWKVDNALQSGNSQESVTEQDSKDSTYSLSSTLTLSKADYEKHKVYACEVTHQGLSSPVTKSFNRGEC
# notes: Anti-CD38 (MOR) Fab arm with CL Lc1 and anti-CD3 scFv (VH2a/VL5)-Fc fusion peptide
# B4: MS-hCD3-IC15 (bispecific antibody, human IgG1, kappa, N297Q)
# scFv: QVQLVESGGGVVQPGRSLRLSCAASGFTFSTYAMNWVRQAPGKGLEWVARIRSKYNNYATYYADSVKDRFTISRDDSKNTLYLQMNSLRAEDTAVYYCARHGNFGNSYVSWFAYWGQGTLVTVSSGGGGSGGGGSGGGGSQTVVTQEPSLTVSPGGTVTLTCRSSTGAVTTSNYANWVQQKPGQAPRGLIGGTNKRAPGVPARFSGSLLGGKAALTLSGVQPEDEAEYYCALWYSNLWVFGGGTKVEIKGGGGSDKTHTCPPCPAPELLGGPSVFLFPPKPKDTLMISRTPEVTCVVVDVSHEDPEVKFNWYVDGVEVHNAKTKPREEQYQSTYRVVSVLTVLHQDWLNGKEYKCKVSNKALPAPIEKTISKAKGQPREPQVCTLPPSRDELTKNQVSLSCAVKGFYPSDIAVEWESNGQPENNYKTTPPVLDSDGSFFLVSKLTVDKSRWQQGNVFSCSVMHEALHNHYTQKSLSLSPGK
# heavy: EVKLDETGGGLVQPGRPMKLSCVASGFTFSDYWMNWVRQSPEKGLEWVAQIRNKPYNYETYYSDSVKGRFTISRDDSKSSVYLQMNNLRVEDMGIYYCTGSYYGMDYWGQGTSVTVSSASTKGPSVFPLAPSSKSTSGGTAALGCLVKDYFPEPVTVSWNSGALTSGVHTFPAVLQSSGLYSLSSVVTVPSSSLGTQTYICNVNHKPSNTKVDKKVEPKSCDKTHTCPPCPAPELLGGPSVFLFPPKPKDTLMISRTPEVTCVVVDVSHEDPEVKFNWYVDGVEVHNAKTKPREEQYQSTYRVVSVLTVLHQDWLNGKEYKCKVSNKALPAPIEKTISKAKGQPREPQVYTLPPCRDELTKNQVSLWCLVKGFYPSDIAVEWESNGQPENNYKTTPPVLDSDGSFFLYSKLTVDKSRWQQGNVFSCSVMHEALHNHYTQKSLSLSPGK
# light: DVVMTQTPLSLPVSLGDQASISCRSSQSLVHSNGNTYLRWYLQKPGQSPKVLIYKVSNRFSGVPDRFSGSGSGTDFTLKISRVEAEDLGVYFCSQSTHVPWTFGGGTKLEIKRTVAAPSVFIFPPSDEQLKSGTASVVCLLNNFYPREAKVQWKVDNALQSGNSQESVTEQDSKDSTYSLSSTLTLSKADYEKHKVYACEVTHQGLSSPVTKSFNRGEC
# B5: IC-2 (bispecific antibody, human IgG1, kappa)
# scFv: B2 scFv
# heavy: B4 heavy with L235F, L236E, Q298N, P332S
# light: B4 light
# notes: Comparative: 4420 Fab arm and anti-CD3 scFv (SP34)-Fc fusion peptide, CH2 FES
# B6: IC-3 (bispecific antibody, human IgG1, kappa, N297Q)
# scFv: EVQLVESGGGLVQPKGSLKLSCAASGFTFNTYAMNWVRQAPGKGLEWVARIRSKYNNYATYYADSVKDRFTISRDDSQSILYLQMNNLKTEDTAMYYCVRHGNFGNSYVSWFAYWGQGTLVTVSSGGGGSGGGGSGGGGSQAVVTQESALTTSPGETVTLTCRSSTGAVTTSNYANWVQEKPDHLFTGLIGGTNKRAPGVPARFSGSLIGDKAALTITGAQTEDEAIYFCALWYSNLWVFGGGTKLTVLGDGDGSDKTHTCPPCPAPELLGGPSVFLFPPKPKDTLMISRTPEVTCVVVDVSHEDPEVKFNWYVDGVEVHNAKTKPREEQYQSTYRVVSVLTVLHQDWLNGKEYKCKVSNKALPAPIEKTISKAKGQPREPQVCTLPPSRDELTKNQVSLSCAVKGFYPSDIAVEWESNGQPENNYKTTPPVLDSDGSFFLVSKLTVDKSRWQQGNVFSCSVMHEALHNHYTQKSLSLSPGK
# heavy: B4 heavy
# light: B4 light
# notes: Comparative: 4420 Fab arm and anti-CD3 scFv (SP34)-Fc fusion peptide, CH2 N297Q
# B7: MS-hCD3-IC18 (bispecific antibody, human IgG1, kappa)
# scFv: QVQLVESGGGVVQPGRSLRLSCAASGFTFSTYAMNWVRQAPGKGLEWVARIRSKYNNYATYYADSVKDRFTISRDDSKNTLYLQMNSLRAEDTAVYYCARHGNFGNSYVSWAAYWGQGTLVTVSSGGGGSGGGGSGGGGSQTVVTQEPSLTVSPGGTVTLTCRSSTGAVTTSNYANWFQQKPGQAPRGLIGGTNKRAPGVPARFSGSLLGGKAALTLSGVQPEDEAEYYCALWYSNLWVFGGGTKVEIKGGGGSDKTHTCPPSPAPPVAGPSVFLFPPKPKDTLMISRTPEVTCVVVDVSHEDPEVQFNWYVDGVEVHNAKTKPREEQFNSTFRVVSVLTVVHQDWLNGKEYKCKVSNKGLPAPIEKTISKTKGQPREPQVCTLPPSRDELTKNQVSLSCAVKGFYPSDIAVEWESNGQPENNYKTTPPVLDSDGSFFLVSKLTVDKSRWQQGNVFSCSVMHEALHNHYTQKSLSLSPGK
# heavy: EVKLDETGGGLVQPGRPMKLSCVASGFTFSDYWMNWVRQSPEKGLEWVAQIRNKPYNYETYYSDSVKGRFTISRDDSKSSVYLQMNNLRVEDMGIYYCTGSYYGMDYWGQGTSVTVSSASTKGPSVFPLAPSSKSTSGGTAALGCLVKDYFPEPVTVSWNSGALTSGVHTFPAVLQSSGLYSLSSVVTVPSSSLGTQTYICNVNHKPSNTKVDKKVEPKSCDKTHTCPPSPAPPVAGPSVFLFPPKPKDTLMISRTPEVTCVVVDVSHEDPEVQFNWYVDGVEVHNAKTKPREEQFNSTFRVVSVLTVVHQDWLNGKEYKCKVSNKGLPAPIEKTISKTKGQPREPQVYTLPPCRDELTKNQVSLWCLVKGFYPSDIAVEWESNGQPENNYKTTPPVLDSDGSFFLYSKLTVDKSRWQQGNVFSCSVMHEALHNHYTQKSLSLSPGK
# light: B4 light
# notes: 4420 Fab arm and anti-CD3 scFv (VH2j/VL5a)-Fc fusion peptide, CH2 SG2
# What was measured:
# [1] = target: T1, human CD3 (human, UniProt P07766 23-207); assay: flow cytometry on human CD3 positive T cells
# T1 construct: whole, on cells; Assays used CD3 positive T cells (or CIK cells) from human blood; also called Human CD3ϵ; CD3 on human CD3 positive T cells
# [2] = target: T2, Human CD38 (human, UniProt P28907 1-300); assay: flow cytometry on CD38 positive tumor cells (MM.1S or RPMI 8226)
# T2 construct: whole, on cells; the assays used the protein on tumor cells
# [3] = target: T3, monkey CD3 (monkey); assay: flow cytometry on monkey CD3 positive T cells
# T3 construct: whole, on cells; also called CD3 on monkey CD3 positive T cells
# [4] = target: T1, human CD3; assay: cell-based or functional assay
# [5] = target: T1, human CD3; assay: cell-based or functional assay; remark: listed apart in the source
Binder,EC50 [1] [nM],EC50 [2] [nM],EC50 [3] [nM],"EC50 values of T-cell activation (CD3 and CD69 dual positive cells; human PBMC with MC/CAR target cells 5:1, 48 h) [4] [nM]","Cytotoxicity EC50 against lung cancer cells H358 (human PBMC 10:1, 48 h); control with CD3 arm only, no tumor antigen arm [5] [µg/mL]"
B1,426,103,422,,
B2,111,27.1,130,,
B3,437,106,461,0.0835,
B4,194,,378,,0.172
B5,172,,312,,
B6,155,,285,,
B7,582,,680,,
